Reference: the supplement of paper PMC7877785
± gives the uncertainty stated by the source.

Experiment: self-splicing fitness, log relative to wild type (ln ratio); higher = more splicing; Tetrahymena group I intron in knt gene, E. coli kanamycin selection, DiMSum; sequences stand for … in CUCUCU…GGAGGGAAAAGUUAUCAGGCAUGCACCUGGUAGCUAGUCUUUAAACCAAUAGAUUGCAUCGGUUUAAAAGGCAAGACCGUCAAAUUGCGGGAAAGGGGUCAACAGCCGUUCAGUACCAAGUCUCAGGGGAAACUUUGAGAUGGCCUUGCAAAGGGUAUGGUAAUAAGCUGACGGACAUGGUCCUAACCACGCAGCCAAGUCCUAAGUCAACAGAUCUUCUGUUGAUAUGGAUGCAGUUCACAGACUAAAUGUCGGUCGGGGAAGAUGUAUUCUUCUCAUAAGAUAUAGUCGGACCUCUCCUUAAUGGGAGCUAGCGGAUGAAGUGAUGCAACACUGGAGCCGCUGGGAACUAAUUUGUAUGCGAAAGUAUAUUGAUUAGUUUUGGAGUACUCGUGGUCG
Summary of the method: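 Six replicate transformations of E. coli BL21(DE3) with a pET-22b(+) library were grown overnight at 37°C or 30°C. The library randomised all eight P1ex-region intron nucleotides, the intron lying in the knt kanamycin-resistance gene, and plates were LB agar with or without 25 μg/mL kanamycin plus 100 μg/mL carbenicillin, 50 μM IPTG and 0.2% rhamnose. Pooled colonies were amplicon-sequenced on an Illumina HiSeq 2500, and fitness is the DiMSum error-weighted combination of wild-type-normalised replicate fold changes, kanamycin versus none.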

Sequence	self-splicing fitness (ln) (30 °C)	self-splicing fitness (ln) (37 °C)
AACCAGCAAUAUUACGUCAA	-1.38 ± 0.062	-1.06 ± 0.074
AACCAGCAAUAUUACGUCUA	-0.091 ± 0.062	-0.6 ± 0.067
AACGAGCAAUAUUACGAAAU	-3.74 ± 0.29	-2.26 ± 0.21
AACGAGCAAUAUUACGACAA	-2.78 ± 0.24	-0.872 ± 0.18
AACGAGCAAUAUUACGACUC	-1.14 ± 0.064	-0.414 ± 0.081
AACGAGCAAUAUUACGCAAC	-2.01 ± 0.21	-1.94 ± 0.44
AACGAGCAAUAUUACGCAAG	-3.43 ± 0.19	-2.19 ± 0.19
AACGAGCAAUAUUACGCACC	-2.32 ± 0.42	-1.65 ± 0.35
AACGAGCAAUAUUACGCCGC	-2.6 ± 0.24	-3.58 ± 0.39
AACGAGCAAUAUUACGCCGU	-3.6 ± 0.18	-1.88 ± 0.16
AACGAGCAAUAUUACGCGAA	-4 ± 0.29	-2.96 ± 0.28
AACGAGCAAUAUUACGCGAC	-2.91 ± 0.21	-2.03 ± 0.27
AACGAGCAAUAUUACGCUAA	-3.19 ± 0.35	-2.33 ± 0.16
AACGAGCAAUAUUACGCUAU	-3.9 ± 0.24	-2.18 ± 0.23
AACGAGCAAUAUUACGGAAG	-2.67 ± 0.16	-2.45 ± 0.28
AACGAGCAAUAUUACGGAGC	-3.72 ± 0.19	-2.05 ± 0.15
AACGAGCAAUAUUACGGCAC	-2.99 ± 0.22	-1.89 ± 0.29
AACGAGCAAUAUUACGGGGA	-2.72 ± 0.21	-3.6 ± 0.34
AACGAGCAAUAUUACGGGUU	-2.17 ± 0.18	-2.05 ± 0.22
AACGAGCAAUAUUACGGUGA	-3.07 ± 0.33	-1.99 ± 0.31
AACGAGCAAUAUUACGUAAU	-3.78 ± 0.15	-1.75 ± 0.12
AACGAGCAAUAUUACGUAGU	-3.97 ± 0.15	-2.24 ± 0.15
AACGAGCAAUAUUACGUAUA	-2.83 ± 0.19	-2.34 ± 0.27
AACGAGCAAUAUUACGUCGC	-2.69 ± 0.36	1.3 ± 0.3

Sequence	self-splicing fitness (ln) (30 °C)	self-splicing fitness (ln) (37 °C)
AACGAGCAAUAUUACGUCUU	-1.33 ± 0.074	-0.279 ± 0.093
AACGAGCAAUAUUACGUGCG	-2.23 ± 0.11	-1.92 ± 0.15
AACUAGCAAUAUUACGAAAC	-3.3 ± 0.21	-2.94 ± 0.3
AACUAGCAAUAUUACGAACA	-1.12 ± 0.07	-0.611 ± 0.081
AACUAGCAAUAUUACGAAGG	-3.46 ± 0.2	-2.74 ± 0.26
AACUAGCAAUAUUACGACCU	-0.168 ± 0.083	0.541 ± 0.11
AACUAGCAAUAUUACGACGA	-0.137 ± 0.066	-0.576 ± 0.074
AACUAGCAAUAUUACGAGGC	-3.35 ± 0.2	-2.62 ± 0.35
AACUAGCAAUAUUACGAUAU	-1.26 ± 0.077	-0.429 ± 0.11
AACUAGCAAUAUUACGCAGG	-2.99 ± 0.15	-1.66 ± 0.14
AACUAGCAAUAUUACGCAUU	-2.19 ± 0.077	-1.09 ± 0.073
AACUAGCAAUAUUACGCGGA	-2.25 ± 0.1	-1.18 ± 0.086
AACUAGCAAUAUUACGGCCA	-0.0639 ± 0.1	-0.69 ± 0.1
AACUAGCAAUAUUACGGCGG	-1.21 ± 0.087	-0.787 ± 0.11
AACUAGCAAUAUUACGGCGU	-0.717 ± 0.072	0.0758 ± 0.085
AACUAGCAAUAUUACGGUAA	-1.49 ± 0.094	-0.267 ± 0.095
AACUAGCAAUAUUACGGUCA	-0.313 ± 0.074	0.442 ± 0.093
AACUAGCAAUAUUACGGUGC	-2.46 ± 0.16	-1.77 ± 0.15
AACUAGCAAUAUUACGUCAU	-2.91 ± 0.13	-1.21 ± 0.12
AACUAGCAAUAUUACGUCCA	-0.578 ± 0.094	-0.0353 ± 0.11
AACUAGCAAUAUUACGUCGU	-1.8 ± 0.055	-1.03 ± 0.067
AACUAGCAAUAUUACGUGGC	-3.72 ± 0.25	-1.92 ± 0.17
AACUAGCAAUAUUACGUUAA	-2.93 ± 0.24	-1.71 ± 0.23
